Experimental data from paper PMC3488082 (The Journal of Biological Chemistry, 2012).
Substitutions are numbered along the chain they refer to. Names may count otherwise.

B1: Human aldehyde dehydrogenase-2 (ALDH2), wild-type (enzyme)
chain: SAAATQAVPAPNQQPEVFCNQIFINNEWHDAVSRKTFPTVNPSTGEVICQVAEGDKEDVDKAVKAARAAFQLGSPWRRMDASHRGRLLNRLADLIERDRTYLAALETLDNGKPYVISYLVDLDMVLKCLRYYAGWADKYHGKTIPIDGDFFSYTRHEPVGVCGQIIPWNFPLLMQAWKLGPALATGNVVVMKVAEQTPLTALYVANLIKEAGFPPGVVNIVPGFGPTAGAAIASHEDVDKVAFTGSTEIGRVIQVAAGSSNLKRVTLELGGKSPNIIMSDADMDWAVEQAHFALFFNQGQCCCAGSRTFVQEDIYDEFVERSVARAKSRVVGNPFDSKTEQGPQVDETQFKKILGYINTGKQEGAKLLCGGGIAADRGYFIQPTVFGDVQDGMTIAKEEIFGPVMQILKFKTIEEVVGRANNSTYGLAAAVFTKDLDKANYLSQALQAGTVWVNCYDVFGAQSPFGGYKMSGSGRELGEYGLQAYTEVKTVTVKVPQKNS
modifications: thionitrate adduct on Cys-302 (GTN-soaked crystal)
B2: Human aldehyde dehydrogenase-2 (ALDH2) triple mutant E268Q/C301S/C303S (enzyme)
chain: B1 chain with E268Q, C301S, C303S

Molecular target: the molecule itself
Assay: crystal structure

| Protein | stoichiometry N |
| --- | --- |
| B1 | 4 |
| B2 | 4 |
